Laboratory results reported in the supplement of paper PMC10724198.
± gives the standard deviation of the averaged measurements.

system: Saccharomyces cerevisiae; assay: protein stability index of tFT-peptide fusion (C-terminal peptide) (PSI (0-1 scale)); higher = more stable (slower turnover); details: genetic background: wild type; temperature: 30 C
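Further: PSI is a weighted mean of sequencing reads over stability bins, variants kept only with over 10 reads, mCherry proximal and sfGFP distal, peptide attached via GGGS linker.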

Sequence | protein stability index
FLLPRFDSAFPL | 0.684 ± 0.031
AGGLCLGGVGLG | 0.674 ± 0.079
APSPSPPPPLPN | 0.685 ± 0.058
YCVCACCASLLA | 0.538 ± 0.025
GVESRSCCVFWG | 0.72 ± 0.012
PRARHSVPNIQS | 0.694 ± 0.042
SRVTGPGRADGT | 0.691 ± 0.011
GVFIGWAGYKGT | 0.661 ± 0.027
PPRPPPLSPAPP | 0.7 ± 0.069
SCRGKTRPASGR | 0.64 ± 0.027
SPPLPRLSPLPN | 0.6863 ± 0.0012
TLPPSPTPPLYP | 0.773 ± 0.031
VPASVRRSAPVP | 0.664 ± 0.044
GPPHSGPIYLFP | 0.6748 ± 0.0043
RIEKYKKKKETK | 0.712 ± 0.084
SRPRLSDLFPPP | 0.706 ± 0.11
DCFSASIHYCPS | 0.714 ± 0.059
MFLVLEGIDSRV | 0.65 ± 0.051
PPPPPPPPSPSP | 0.742 ± 0.074
SPPPLLLPLSPP | 0.727 ± 0.047
FVAGVGPLWGRR | 0.661 ± 0.031

Sequence | protein stability index
KIKNNKNKKKKS | 0.693 ± 0.01
FRRLCRPVWSAR | 0.6749 ± 0.0038
ESCLVSKFDVIV | 0.656 ± 0.052
LSEFFLSAFLSC | 0.712 ± 0.011
PPRSLPPSPPSP | 0.7384 ± 0.0047
WHFTPPPPPTSP | 0.715 ± 0.011
KIKERKNVKGKK | 0.685 ± 0.024
VVVAWGGGAVVG | 0.684 ± 0.018
IRQITVTICRGR | 0.639 ± 0.067
SSPPRSLLSKSF | 0.722 ± 0.017
HVPRFLPFLSSL | 0.739 ± 0.033
PPPLPPPPPLPP | 0.589 ± 0.038
NKVLHPGGKPLT | 0.6637 ± 0.0062
KNKKYKNKQKQR | 0.714 ± 0.094
GGGGCRVRGLGA | 0.684 ± 0.041
PLSVPPMSSLLP | 0.7202 ± 0.0068
KLVKWEGGYIVS | 0.61 ± 0.019
MGYDYAPISALF | 0.691 ± 0.1
HGSVGRIAHVLS | 0.6672 ± 0.0062
GCWVNFLLTHFF | 0.527 ± 0.024
SATRLGLGLCWV | 0.6383 ± 0.0039

Sequence | protein stability index
SDKNNRFGRVRV | 0.674 ± 0.072
PLPPPAFPPLDP | 0.671 ± 0.021
PPPRSSLRLPSA | 0.652 ± 0.063
TQLNATVSWTEK | 0.665 ± 0.014
PPPQDPTRRRRP | 0.7116 ± 0.0054
LSRFPSPPPLSH | 0.701 ± 0.024
AYVFLPINKENR | 0.6405 ± 0.0053
SLRWVHVRGVLQ | 0.702 ± 0.013
QSRFFCDKKVWG | 0.6934 ± 0.0049
FSAPPPPSPPLS | 0.721 ± 0.053
TAAHRASGEIAC | 0.684 ± 0.062
PPSSDRPSIILP | 0.691 ± 0.081
CASGPLQPLPRA | 0.753 ± 0.084
PPLPPPPPLLPP | 0.6764 ± 0.0065
GLYSIAGGSFGE | 0.721 ± 0.026
YFFDYGVSRVLS | 0.584 ± 0.015
RSWVGVEWVGGM | 0.595 ± 0.094
PPPRPLSPPFPF | 0.641 ± 0.05
SGGSGGSCMRYV | 0.691 ± 0.025
SPPPPHVPLSPS | 0.712 ± 0.032
PPRPAPPPPPAL | 0.723 ± 0.11

Sequence | protein stability index
CGVWHGFFGLWL | 0.657 ± 0.12
GLRGRRRAAGRV | 0.726 ± 0.06
EAGRRVGARRVG | 0.689 ± 0.059
RPAGGPRGGEGV | 0.648 ± 0.058
FRRCLCSLSLTS | 0.631 ± 0.012
PPPPSPRLSHSP | 0.646 ± 0.018
ERMLHGTATSVW | 0.736 ± 0.046
RGGGGAKGEGVR | 0.707 ± 0.048
DIRRSSMFKPKS | 0.702 ± 0.074
GWEYMDERVNQS | 0.74 ± 0.013
RAPPAARIASGL | 0.677 ± 0.026
PPRPSPPPPPRS | 0.735 ± 0.09
KEILTNNQKGQD | 0.6602 ± 0.0036
SRVAEIERVQWL | 0.655 ± 0.038
PPFPPPPRPADH | 0.741 ± 0.023
VGTFGAGGYAPD | 0.646 ± 0.078
SNHTIIGNVVHF | 0.7131 ± 0.0056
APPPPSLPVPST | 0.739 ± 0.015
